B1: TPR t1 (parent)
chain: GACCAAUCUGCCCUCAGAGCUCGAGAACAUCUUCGGAUGCAGAGGAGGCAGGCUUCGGUGGCGCGAUAGCGCCAACGUCCUCAACCUCCAAUGCAUCCCACCACAUGAUGAUGCCUGAAGAGCCUUGGUUUUUUG

Variants of: B1
Assay: polymerase ribozyme fitness, log enrichment relative to wild type (log ratio); higher = more active; in vitro selection for triplet polymerase activity
How it was run: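 Mutant libraries of each subunit of a heterodimeric triplet polymerase ribozyme were built by PCR and transcribed. Each library went through one round of in vitro selection in triplicate: annealing with biotinylated primer, partner subunit and triplets, frozen incubation at −7 °C, gel excision of extended constructs, streptavidin-bead capture and RT-PCR. Input and output libraries were Illumina-sequenced; only genotypes with ≥10 input reads and ≥1 read per output were kept. Fitness is log2(genotype enrichment/wild-type enrichment), using inverse-variance-weighted replicate averages.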

Row | Variant | polymerase ribozyme fitness (log ratio)
1 | G120U U132A | 0.126
2 | C115G G120A | -1.35
3 | C114A C124A | -1.12
4 | G113U U134G | -1.78
5 | C114A U131A | -0.246
6 | G113C C114U C115G C124U | -3.2
7 | G122A C123A | -0.665
8 | C124G G128C | -0.216
9 | C114U G120A C123U | -1.64
10 | G117U U133A | -3.13
11 | U130G | -0.361
12 | U130C | 0.0585
13 | U130A | -0.523
14 | U116G U125A U133A | -4.19
15 | G113C U130G | -2.88
16 | G120A C123U | 1.96
17 | A111C C124U G128C U129A | -3.3
18 | G113A C115A | -3.51
19 | U116C G117U | -1.01
20 | G117U U130C | -2.04
21 | G120C C124U | 1.74
22 | G120C G127A | 0.0309
23 | G120C G127C | -0.522
24 | C123A G128C | -0.87
25 | G113A G127U | -3.27

Row | Variant | polymerase ribozyme fitness (log ratio)
26 | C114A U129C | -1.63
27 | U112G G120U G122C | -1.48
28 | C114U U133A | -1.63
29 | C114G U133A | -2.37
30 | U109G G110A | -3.89
31 | C115U G120A A121C | -2.04
32 | U126A U130A | -3.19
33 | C124G U126A | 1.15
34 | A121U U133A | 1.83
35 | U116G C123A | -3.25
36 | C115U G128U | -4.06
37 | A111C U112G G113U U116A C124A | -3.18
38 | G127C U129C | -2.22
39 | C115U U129G | -2.15
40 | A111G U126C | 0.0972
41 | U116C U133A | -0.508
42 | G117U U129G | -4.23
43 | C114G | -2.37
44 | C114A | -1.39
45 | C114U | -1.7
46 | U112A C115A U125G | 0.414
47 | U112A G122A | -0.631
48 | U112A G122C | 0.265
49 | C114A U129G U130C | -2.79
50 | G110C A121C U130A | -3.51

Row | Variant | polymerase ribozyme fitness (log ratio)
51 | U112C G122A | 0.065
52 | G120U G127U | 1.64
53 | G120U G127C | -0.262
54 | G110A G120A | -1.23
55 | G113U G122U | -2.45
56 | G113A G120U | -2.35
57 | G117C G128A | -5.33
58 | G113U | -2.64
59 | G113A | -1.01
60 | G113C | -2.02
61 | G110U U130A | -1.27
62 | G110U U130C | -1.04
63 | U116G C124A | 0.803
64 | G110C U131C | -3.75
65 | G117C A121G | -2.23
66 | G113A A118U | -2.67
67 | G113A A118C | -2.55
68 | G117U G127U | -4.77
69 | C114A C123U | -3.16
70 | U112C A119U | 1.24
71 | C124A U131A | 1.79
72 | U112A | 1.34
73 | U112C | 1.39
74 | U112G | 0.661
75 | A111C U131C | 0.44

Row | Variant | polymerase ribozyme fitness (log ratio)
76 | A121C G122A | 1.31
77 | G127A U129G | -1.62
78 | U109G U129A | -5.24
79 | A111G C124A U126A | 0.226
80 | G117C A119U | -2.92
81 | G120A G135C | 0.457
82 | U112A U131A | 1.02
83 | C123G U126G | -0.0102
84 | U116C U131G | -1.05
85 | G128A U131A | -2.44
86 | G120C U133A | 1.48
87 | G113C A119C | -4.37
88 | G113C A119G | -0.737
89 | A121C U126A | 0.358
90 | G117A U130G | -1.63
91 | G122A U133G | -0.871
92 | A111U C124U | -3.09
93 | A121C U129A | -1.04
94 | U116A C124A | 0.141
95 | G120U C123A | -0.201
96 | G120U C124U | 1.38
97 | A111G G113U U129G U131A | -6.64
98 | G113C G120C | -2.85
99 | A121U C124U | 2.15
100 | C115U A119U U130G | -1.35

Row | Variant | polymerase ribozyme fitness (log ratio)
101 | C115U C123G | -0.112
102 | U112A G127A | 0.262
103 | A121C C123U | 0.54
104 | C123U U129A | 0.307
105 | G113U A119C G122U | -4.35
106 | C115A U132A | 0.0612
107 | G110A U131G | -1.96
108 | U112A G128C | -2.66
109 | C114U U116A | -5.58
110 | C115U A118U U130G | -1.69
111 | G110U U129A | -2.53
112 | A121U C123G | 1.92
113 | G113C U125C | -2.26
114 | G113C U125G | -2.58
115 | C114A U125A | -1.73
116 | A111G C124A | 1.23
117 | C115A U129C | -2.62
118 | G117U U131G | -4.64
119 | G113A G122C G135C | -0.874
120 | G110C C123U | -4.69
121 | G113C G122A C123U | -3.7
122 | C123G U130G | 1.48
123 | G117C G120U U131G | -4.67
124 | G120C A121U | 2.44
125 | G120C U129A | -1.15

Row | Variant | polymerase ribozyme fitness (log ratio)
126 | U112C C124A | 0.693
127 | C114G C115U | -4.37
128 | G110A U130A | -0.862
129 | G110A U130C | -0.539
130 | C114A A121U | -1.18
131 | G128U U129C | -0.805
132 | U112A C123A | 1.45
133 | A119C A121U | -1.38
134 | G117U G135U | -1.25
135 | G113U A118U | -2.55
136 | C115A U129A U131C | -0.649
137 | C124A U134G | 3.41
138 | U112A U129A | 0.929
139 | C114G G122U | -2.87
140 | G117U A119U | -3.92
141 | C123G G135U | 1.4
142 | A121C U133A | -0.797
143 | U112G C124U | 0.835
144 | U112G U116C | -0.775
145 | G117C G120U | -4.51
146 | A111C C123G | 0.549
147 | G110A A111U | -1.9
148 | A111C G127C | -0.199
149 | G113A C123A | -1.45
150 | G113A C123U | -1.32

Row | Variant | polymerase ribozyme fitness (log ratio)
151 | U112G G122A G128A | -2.62
152 | G117C U131C | -3.27
153 | G120A U130C | 0.856
154 | G120A U130G | 0.245
155 | U125G U132C | -0.45
156 | G127A G135U | -2.16
157 | A118U G120A | -0.267
158 | U112A A118U | 0.895
159 | A121C G127A G128U | -0.559
160 | A111C G122A | -0.308
161 | U129C G135U | -0.0345
162 | U129C G135C | 0.513
163 | A121G G128A | 0.956
164 | C115U G120A | -2.24
165 | U112A A121U U125A | 1.36
166 | A121G U125A | 2.32
167 | C115A G128U U133A | -3.05
168 | C124U U125A | 0.926
169 | G117C U126G | -3.22
170 | C124A G127C | 0.796
171 | C114U U125A | -3.07

From the RNAGym collection of RNA variant scans (doi:10.1073/pnas.2313332121)
